Values belong to the binder of their own block, whether it stands above or below them.
Key:
Human CD3 (recombinant) = Human CD3 (recombinant) (human); assay: SPR, CD3 amine-coupled, variant as analyte, 1:1 model
PD-L1 on cells = PD-L1 on cells (UniProt Q9NZQ7 19-290, limits assumed); assay: cell-based or functional assay
Human PD-L1 [1] = target: T1, Human PD-L1 (human, UniProt Q9NZQ7 19-239); assay: SPR, PD-L1 amine-coupled, variant as analyte, 1:1 model; third of three variants in the merged cell (G1 4-1 PD-1)
T1 construct: Amine-coupled to a CM5 chip for SPR; also called recombinant human PD-L1
T1 sequence (Q9NZQ7 19-239 limits assumed): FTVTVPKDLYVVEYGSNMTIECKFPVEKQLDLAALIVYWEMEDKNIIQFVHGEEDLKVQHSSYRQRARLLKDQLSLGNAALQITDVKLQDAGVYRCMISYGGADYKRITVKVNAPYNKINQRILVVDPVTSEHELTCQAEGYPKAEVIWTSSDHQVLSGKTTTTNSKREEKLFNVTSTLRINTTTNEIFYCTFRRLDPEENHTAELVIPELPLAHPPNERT

Human PD-L2 = target: T2, Human PD-L2 (human, UniProt Q9BQ51 20-219); assay: SPR, PD-L2 amine-coupled, variant as analyte, 1:1 model
T2 construct: Amine-coupled to a CM5 chip for SPR; also called recombinant PD-L2
T2 sequence (looked up): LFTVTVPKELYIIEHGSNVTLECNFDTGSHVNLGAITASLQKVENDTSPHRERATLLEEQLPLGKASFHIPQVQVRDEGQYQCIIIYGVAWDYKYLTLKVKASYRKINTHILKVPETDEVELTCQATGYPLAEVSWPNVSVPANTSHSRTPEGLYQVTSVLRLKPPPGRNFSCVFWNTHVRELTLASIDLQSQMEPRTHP

Human PD-L1 [2] = target: T1, Human PD-L1; assay: SPR, PD-L1 amine-coupled, variant as analyte, 1:1 model
Human PD-L1 [3] = target: T1, Human PD-L1; assay: as above; remark: listed apart in the source
Cynomolgus monkey CLDN18 = target: T3, Cynomolgus monkey CLDN18 (cynomolgus monkey); assay: FACS on transfected HEK293-6E cells, 4 parameter logistic fit
T3 construct: On transfected HEK293-6E cells; also called Cyno CLDN18; cynomologus monkey CLDN18.2 ortholog
T3 chain: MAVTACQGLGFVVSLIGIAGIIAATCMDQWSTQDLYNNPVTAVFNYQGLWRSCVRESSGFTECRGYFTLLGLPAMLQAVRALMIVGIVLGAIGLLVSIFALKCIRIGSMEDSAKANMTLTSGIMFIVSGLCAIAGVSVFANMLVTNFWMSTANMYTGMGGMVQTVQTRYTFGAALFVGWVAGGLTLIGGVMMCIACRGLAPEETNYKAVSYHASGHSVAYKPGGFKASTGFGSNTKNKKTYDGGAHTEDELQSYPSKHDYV

Mouse CLDN18 A2.1 = target: T4, Mouse CLDN18 A2.1 (mouse, UniProt P56857 10-264); assay: as above
T4 construct: On transfected HEK293-6E cells; also called Mouse CLDN18 2.1; mouse CLDN18.2 ortholog
T4 chain: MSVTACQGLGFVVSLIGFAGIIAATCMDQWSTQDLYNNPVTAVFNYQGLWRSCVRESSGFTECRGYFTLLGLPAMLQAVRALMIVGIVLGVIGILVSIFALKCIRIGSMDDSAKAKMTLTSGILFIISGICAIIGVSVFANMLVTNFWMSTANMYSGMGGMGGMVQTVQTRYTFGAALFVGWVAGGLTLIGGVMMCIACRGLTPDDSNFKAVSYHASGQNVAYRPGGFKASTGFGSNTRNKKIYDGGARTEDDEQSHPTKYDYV

Human CLDN18.2 = target: T5, Human CLDN18.2 (human); assay: as above
T5 construct: On transfected HEK293-6E cells; also called Claudin18.2

Human CLDN18.1 = target: T6, Human CLDN18.1 (human, UniProt P56856 1-261); assay: flow cytometry, purified construct on transfected HEK293-6E cells
T6 construct: On transfected HEK293-6E cells
T6 sequence (P56856 whole entry): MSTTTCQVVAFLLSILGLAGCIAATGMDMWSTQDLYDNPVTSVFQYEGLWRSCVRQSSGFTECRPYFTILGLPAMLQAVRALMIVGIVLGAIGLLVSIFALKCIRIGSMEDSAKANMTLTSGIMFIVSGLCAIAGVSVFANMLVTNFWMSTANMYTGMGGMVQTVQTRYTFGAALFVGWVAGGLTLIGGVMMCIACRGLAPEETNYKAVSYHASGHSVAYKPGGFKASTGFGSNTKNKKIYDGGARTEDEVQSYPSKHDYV

Chain of Human CD3 (recombinant) (human) (chain, as listed by the source): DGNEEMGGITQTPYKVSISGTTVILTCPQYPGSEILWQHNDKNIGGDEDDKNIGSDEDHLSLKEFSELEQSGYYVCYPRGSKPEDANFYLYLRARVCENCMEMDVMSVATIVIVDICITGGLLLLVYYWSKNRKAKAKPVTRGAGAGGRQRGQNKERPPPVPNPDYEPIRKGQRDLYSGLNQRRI
Chain of PD-L1 on cells (Q9NZQ7 19-290 limits assumed): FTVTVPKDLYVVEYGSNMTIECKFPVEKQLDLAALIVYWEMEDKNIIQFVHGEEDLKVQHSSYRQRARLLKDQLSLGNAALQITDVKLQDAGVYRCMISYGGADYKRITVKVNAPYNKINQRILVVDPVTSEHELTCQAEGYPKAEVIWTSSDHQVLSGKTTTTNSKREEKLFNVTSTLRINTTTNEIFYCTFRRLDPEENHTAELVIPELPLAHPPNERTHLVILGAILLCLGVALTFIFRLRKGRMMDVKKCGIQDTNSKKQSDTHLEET

Kd (Human CD3 (recombinant)): 3.5 nM | EC50 (read off the curve); hybrid PD-1/PD-L1 reporter gene assay, delta RLU, PD-1+ Jurkat T cells with SNU-620 cells, top left graph; composite signal of CD3 engagement and PD-1:PD-L1 blockade (PD-L1 on cells): ~0.5 nM | Kd (Human PD-L1 [1]): 280 nM
B1: v38737 (other)
heavy 1: EVQLVESGGGLVQPGGSLRLSCAASGVTFNYYGMSWIRQAPGKGLEWVASITSSGGRIYYPDSVKGRFTISRENTQKTLYLQMNSLRAEDTAVYYCTLDGRDGWVAYWGQGTLVTVSSASTKGPSVFPLAPSSKSTSGGTAALGCLVKDYFPEPVTVSWNSGALTSGVHTFPAVLQSSGLYSLSSVVTVPSSSLGTQTYICNVNHKPSNTKVDKKVEPKSCDKTHTCPPCPAPEAAGGPSVFLFPPKPKDTLMISRTPEVTCVVVSVSHEDPEVKFNWYVDGVEVHNAKTKPREEQYNSTYRVVSVLTVLHQDWLNGKEYKCKVSNKALPAPIEKTISKAKGQPREPQVYVYPPSRDELTKNQVSLTCLVKGFYPSDIAVEWESNGQPENNYKTTPPVLDSDGSFALVSKLTVDKSRWQQGNVFSCSVMHEALHNHYTQKSLSLSPGGGGGSGDRPWNPPTFSPALLVVTEGDNATFTCSFSNTSESFRLVWHRESPGYETDTLASFPEDRSTPLPDARFRVTQLPNGRDFHMSVVRARRNDSGTYVCGAIAFHPVIQIKESLRAELRVTE
light: NFMLTQPHSVSESPGKTVTISCKRNTGNIGSNYVNWYQQHEGSSPTTIIYRNDKRPDGVSDRFSGSIDRSSKSASLTISNLKTEDEADYFCQSYSSGFIFGGGTKLTVLGQPKAAPSVTLFPPSSEELQANKATLVCLISDFYPGAVTVAWKADSSPVKAGVETTTPSKQSNNKYAASSYLSLTPEQWKSHRSYSCQVTHEGSTVEKTVAPTECS
heavy 2: QVQLVESGGGLVQPGGSLRLSCSVSGIDLSSNPMIWVRQAPGKGLQYIGIIDTDGSTYYADWAKGRFTISKDSTTVYLQINSPRAEDTAVYYCARRLHGSSNGYYDDLWGQGTLVTVSSGGGGSGGGGSGGGGSGGGGSDGQMTQSPSSVSASVGDRVTITCQASQSIYSYLSWYQQKPGQRPKLLIYKASTLASGVPSRFSGSGSGTDFTLTISSVQPEDFATYYCQQGYTVTNVDKNTFGGGTKVEIKAAEPKSSDKTHTCPPCPAPEAAGGPSVFLFPPKPKDTLMISRTPEVTCVVVSVSHEDPEVKFNWYVDGVEVHNAKTKPREEQYNSTYRVVSVLTVLHQDWLNGKEYKCKVSNKALPAPIEKTISKAKGQPREPQVYVLPPSRDELTKNQVSLLCLVKGFYPSDIAVEWESNGQPENNYLTWPPVLDSDGSFFLYSKLTVDKSRWQQGNVFSCSVMHEALHNHYTQKSLSLSPG

Kd (Human PD-L2): 230 nM | Kd (Human PD-L1 [2]): 310 nM | Kd (Human CD3 (recombinant)): 39 nM | Kd (Human PD-L1 [3]): 110 nM
B2: v38739 (other)
heavy 1: EVQLVESGGGLVQPGGSLRLSCAASGVTFNYYGMSWIRQAPGKGLEWVASITSSGGRIYYPDSVKGRFTISRENTQKTLYLQMNSLRAEDTAVYYCTLDGRDGWVAYWGQGTLVTVSSASTKGPSVFPLAPSSKSTSGGTAALGCLVKDYFPEPVTVSWNSGALTSGVHTFPAVLQSSGLYSLSSVVTVPSSSLGTQTYICNVNHKPSNTKVDKKVEPKSCDKTHTCPPCPAPEAAGGPSVFLFPPKPKDTLMISRTPEVTCVVVSVSHEDPEVKFNWYVDGVEVHNAKTKPREEQYNSTYRVVSVLTVLHQDWLNGKEYKCKVSNKALPAPIEKTISKAKGQPREPQVYVYPPSRDELTKNQVSLTCLVKGFYPSDIAVEWESNGQPENNYKTTPPVLDSDGSFALVSKLTVDKSRWQQGNVFSCSVMHEALHNHYTQKSLSLSPGGGGGSGDRPWNPPTFSPALLVVTEGDNATFTCSFSNTSESFVLNWYRMSPSNQTDKLAAFPEDRSQPGQDARFRVTQLPNGRDFHMSVVRARRNDSGTYLCGAISLAPKLQIKESLRAELRVTE
light: B1 light
heavy 2: B1 heavy 2

Bmax (Cynomolgus monkey CLDN18): 1660 | EC50 (Cynomolgus monkey CLDN18): 0.48 nM | Bmax (Mouse CLDN18 A2.1): 1640 | EC50 (Mouse CLDN18 A2.1): 0.87 nM | Bmax (Human CLDN18.2): 2070 | EC50 (Human CLDN18.2): 1.29 nM | binding result (Human CLDN18.1): no binding
B3: v35777 (antibody, human IgG1, V domains shown)
VH: QSLEESGGRLVTPGTPLTLTCTVSGIDLSSNPMIWVRQAPGKGLQYIGIIDTDGSTYYASWAKGRFTGSKTSTTVDLKITSPTTEDTATYFCARRLHGSSNGYYDDLWGQGTLVTISS
VL: DGVMTQTPSSVSAAVGGTVTIKCQASQSIYSYLSWYQQKPGQRPKLLIYKASTLASGVPSRFKGSGSGTEFTLTISGVQCDDAATYYCQQGYTVTNVDKNTFGGGTEVVVK
notes: Rabbit variable regions on human IgG1 (constant region starts at alanine Kabat-114) and human C kappa (starts at arginine Kabat-108); also called parental rabbit chimeric; rabbit-human chimeric IgG1/kappa antibody construct
